Source: the DeepSol protein solubility set

Assay: soluble on expression in E. coli; label from the status in PepcDB or PDB records

Sequence	soluble on expression in E. coli
MGSDKIHHHHHHMVATENRMLMEIAAEISAREATLGFQEVKTKSRSAGLTAAFDIASVFFSSGCNVVVAFDRFASNWSDHSDHVDYAAQVAGFGASMLAYTVRRGQFDTAVRDIRDIKSEVDIPILLHDPIIDPYQIHEARVMGIDALQFPVWAMEQARLESLVDRTESLGMTAIVSVRNHEEAHRAVDAGATVVAIDITGYTGSLTLPEAFSGITQFMPKEVARIVLGGCSSPKELMRFARHSADAIFVPHADLATTKSLVTAGMHPACPSR	not soluble
MGSDKIHHHHHHMIGVRLLVKMSFRSGFRVGRGNETDSTLPTIHSDTIYGAVVYHAFKWSEKAEDFAKKLKVSSLLFVRGDRLLVPKPFLYNTYSLEEDDEESPKELKKASYVFLDKLADYRSIKEASGAVCKENPVEIVRIPRNSLDRITSSSNLYFVEVAFVKEGFTPAFLAEFPDEYEGLFKTAVKSLGDSGIGADSTYGYGLFNAEFESAPDFPEEGEYYLTLSLFVPSAEERSKMNEGYYRVVKRRGVKRDEMKVKKEISYVQEGSVFPFKPEGRGVLKIEDYFVQTSPLCVAFGGDGK	not soluble
MPMFTSFDHQMMSRAIELAWRGRFTTSPNPNVGCVITRGEQIVGEGFHFRAGEPHAEVHAMRQAGELTRGATAYVTLEPCSHYGRTPPCAEGLIKAGVAKVICAMQDPNPQVAGKGVQMLRDAGIEVEVGLLEADARVLNRGFLKRMETGMPFVQLKMAASLDGQTALANGKSQWITSPAARKDVQRFRAQASAILSTSQTVLADNASLAVRWYDLPSSVQAQYAEADLRQPLRVILDRQHQLHPELALYQTPSPVLRVASENAELCISAENGKLDLRELLALLAQQHNVNQLWVEAGSQLAQSLIEQKLVDEIILYLAPKLMGSDGRGLFGALGLTEMAEAIELKIEDCRMVGADLRIIATPKTKD	not soluble
MAHHHHHHMEGASHEAAEHTSASAMTRKERKKIEKSEKQAEELRQLSKKANAVNGDTDNPFSVTLETDQIAEGSRNITFNKVSVSVNGKTLFKDTTVKLSAGSRYGLMGPNGRGKSTILRLLASRELPVQSNLDLLLVEQEQEFTASELSAVDAVLQSHKKQNACADEAKALGAKAELSEAEMERLHFLEEELDIMGAAQADARARRILFGLGFPTEWHERPTSSFSGGWRKRIALASAVFIEPDVLMLDEPTNHLDLNAVIWLESYLTKAYSEMARRPKTLIVVSHDAGFLDEVCTHMVHVENYMLNYYRGSYSSFDEQLQQRHQELDKKYESVAKTIRDKKRNGMSNAQVEVWIKDQVNSGRLDPLFLEKRRDYTVNFPFPDPPELRDGCVCKLDSVSFNYPGGPVLFQNVSCALWTDSRITLCGPNGIGKSTLLNLMTGVLEPTAGYITLNRQVRIGRYNQHFVDKLPLEKTPVECIQALGIPEEDKARRLLGSFGLEGIVHKNQIATLSGGQKARVAFAAISAESPHFLLFDEPTNHLDVESIDALCTAIRNFKGGVLVVTHDARLIESTEMQIWVAGDKNVMPFNGSLDDYKNVVRAEFEKEEAMRLEERKQLLEHKTEARQLKQSGVADVTTALQEKKEKKQHEHAQGLDAFLTAAAKKKKPKKAKEES	soluble
MALRRVKNPEMWNDDLYNLMFRFTKPNGTFATFTAASAVRKGLESAGFNVTKRKGFGKKRECLSGLKIQSKSTALSTPWYLAQPAKMEKQDVAIIGGGIASLCAAISLIKRGAKVTIYCEDDALALNASGNKQGAFYPQLSDDNALTVDFYLHAFSYGRQLLDWAIEQNIVFEHEFCGVALCAYNEKSAVKLTKISQLGLPNEIFQMLSAEQLSEKVGLPLNCEGGWIEQGAWLAPRQFVQNAFSFLEKQGVVIKTAQKITALSQLEKGWELKNMQGQKYCHEVVILANGHKITDFVQTEKLPLYPIRGQVSQIPTSENLLKLKSVLCYDGYLTPANQLKTSHCIGASMFVIMLIAILANKNNKKINKNSSKISPNLGRKMWIHQIISLVLEHHHHHH	not soluble
MHNNENVSGISAYLLGLIWGDGGLYKLKYKGNRSEYRVVITQKSENLIKQFIAPRMQFLIDELNVKSKIQIVKGDTRYELRVSSKKLYYYFANMLERIRLFNGNRFLAYLAGIVDGDGSIIAQIKPNQSYKFKHQLSLTFQVTQKTERRWFLDKLVDEIGVGYVRDRGSVSDYILSEIKPLHNFLTQLQPFLNFKQKQANLVLKIIEQLPSAKESPDKFLEVCTWVDQIAALNDSKTRKTTSETVRAVLDSLSEKKKSSP	soluble
MSLDFAARQAAFADALLHPDRPVPDGVINARGEPDAARFAVYRNNVFVGLTKALAQRFPVTERLVGSEFFAAMARAYVQDHKPASPLIMEYGDDFPDFVAAFEPAGTLVYLPDVARLEAAWTEAYHAADSAPLDLAAFGAVAPEMLSDLRLLPHPSARLILSNFPVGSIWSAHQEAVVSPVSDWGGQAVLVVRPEMSVNVHVLPPRDAVFAAALFNAATLGEAAEAAFAAAPEFDFGTALVGLAGIGAFRAFQQYKGNEGHHHHHH	not soluble
NSPITIGLALNKKLNNHWSIETGLQYIYLKSEFTTGKEYRIQKTQKLHYIGIPLRISYRFGNYKQFSFYSTAGLQMEIPIKGTLHTSHVTDSVPINLGYQSLDVPLQWSINASTGVQYHFTPHTSIYIEPTINYYIPDGSSLRTIRKEHPVTFSVPVGIRFSW	not soluble
MIGITGVTGKLGSKVAQLISEQGISARHLARNPQRAALYDNAELVQVAFENSLEAVEALKGIDVLLMVSASESPNRLQQHFAFLDAAHEAGVKHIVYTSFYNAATEATFTLARDHAKTEKYIKERGFTYTFLRDNFYLDFFLDLCLNNGEIRGPAGNGKVSAVARQDVSEVATTILAKPDKWKNQLLNMTGPADLSMADIVHFVSEQKGEIIPYIDESIEEAYASRKAWPAQDWEYDAWVSTYTAIKEGKQAGVSSDIERVLGRPATSLEQLVKTIK	not soluble
MAHHHHHHMTSTLTNSNRINIPAVCRLRERNTNKTVGSGVLVAQGLLLTSATAIPTQSRATHIVATFFEGTKKSAVDVQLQPQRYYFASRYPPEMDYCLISCEEAPLLNVTPVHMALTGKGWAPVEEGDVVLIVEHPIGDVAGTAAVPLDGKATFSSTLSATGDGDFDSVRAPYTEQKRFEEVLRCRGNVSFLKSNGSWRTAGCPAFNEHGQLVGLQSQSRADGEGVVNRILSLISIVKHLFANVQLPHLPQEDVTFEDVWDTWYVTNDITRILAILANFKGKSMAQQVTWRLCELTAKPQLVKSIASNGGIEVILQNLSLFSSDEKLSESGLRALWNVSIGEEAHLATIIKKEGVQTILDVVESFPANETVLEFGAVLLHNIAGCRAAPNFSEAHGARALKALYPGFQQFRESVVLQKFALSFFATLARLNEDFARDLVQQHVIEHITHLVEEKPKQIFLMEIVVGFVAELAQYPQTVELMCSNTPQYAAASMSYLIDLLIHIILEYKDLDSLLVSGNRALWGLGNVPTCRGIILENPRGIDALRISLPPLIASTHR	soluble
MSTTANKERCLEMVAAWNRWDVSGVVAHWAPDVVHYDDEDKPVSAEEVVRRMNSAVEAFPDLRLDVRSIVGEGDRVMLRITCSATHQGVFMGIAPTGRKVRWTYLEELRFSEAGKVVEHWDVFNFSPLFRDLGVVPDGL	soluble
MGSDKIHHHHHHMRKLYILGMILGMYATFSACNDEWKDELYTQMLSFKAPLGDNGLSEIYVRYQPDGTGIYQLPVIVSGSKSNSRNIDAKIAVDEDTLRILNQEKFPVGRQDLWYVPLAEQHYSFESNICHIPAGENIQLYPIHFNFNGLELDEKYVLPLTIEEDPSYVQNKYKGRYKALLGVNLFNDYSGTYNTTLMNIYIEGTTTDPAKVDTRLARVVDENTIFFYAGSTWVEDENRSRYKVFVEFEEGTEDEEGTIKGKLRLYGDEGEPGINIRPLGECKYEKRIIQHETIKYMERHLTTLELSYKYTDVTSNPDYPITYEVKGSMTMERQINPLIPDEDQAIEW	not soluble
MSLTFIRKVETWITNSKQTEDGWSQIKPFIFLKLTNSDGFEGWGEAFSLPAREKGIVEIIHNLMSSLSYVKDITPDRFYTESNLIADGHRGIDFSAATSAIEMSLWDIEGKKEKKPLYKILSKDYREKVPVYATIWSEDFKNDENLSSRCIEILSDGYGGIKIYPLQNRTVEQAAKCVSKIRDVLGYKIPLMLDLACPKDTNISLKLASLVEEFRPYWFEEPVDGEATRALKDIREKTSLRIVSGEKQCGLNHFIETLALDAVDIFNPDISGVGGIIDMIKIIKLSHEKKVTVSPHCWNSMSIAASAMVHVCMSFTNTEMAEFFPEYIPYSLKFSNQNYEIKDGFVKIEDNEGLGINIDTKLLMEDTSSYRETELTEGHHHHHH	soluble
MSLSIPFDDSRGPYVLAMDIGSTASRGGLYDASGCPIKGTKQRESHEFTTGEGVSTIDADQVVSEITSVINGILNAADHHNIKDQIAAVALDSFASSLILVDGEGNALTPCITYADSRSAQYVEQLRAEIDEEAYHGRTGVCLHTSYHPSRLLWLKTEFEEEFNKAKYVMTIGEYVYFKLAGITGMATSIAAWSGILDAHTGELDLTILEHIGVDPALFGEIRNPDEPATDAKVVDKKWKHLEEIPWFHAIPDGWPSNIGPGAVDSKTVAVAAATSGAMRVILPSVPEQIPSGLWCYRVSRDQCIVGGALNDVGRAVTWLERTIIKPENLDEVLIREPLEGTPAVLPFFSGERSIGWAASAQATITNIQEQTGPEHLWRGVFEALALSYQRVWEHMGKAGAAPERVIASGRVSTDHPEFLAMLSDALDTPVIPLEMKRATLRGTALIVLEQLEPGGTRATPPFGTTHQPRFAHHYSKARELFDALYLKLVEGHHHHHH	soluble
MGSDKIHHHHHHMKPTLFVLAAGMGSRYGSLKQLDGIGPGGDTIMDYSVYDAIRAGFGRLVFVIRHSFEKEFREKILTKYEGRIPVELVFQELDRLPEGFSCPEGREKPWGTNHAVLMGRDAIREPFAVINADDFYGRNGFEVLARKLMTLEGKQGEYCMVGYRVGNTLSESGGVSRGVCQVDEKHLLTGVVERTGIERTDGTISFRDETGKICTLAEDAPVSMNMWGFTPDYFDYSEELFINFLNAHGQEPKSEFFIPFVVNDLIRSGRASVEVLDTTARWFGVTYSDDRPGVVAKLRELTEAGEYPTKLF	not soluble
MGSDKIHHHHHHMNDQLTEYRIKKAPYYRATGDETELYEAAYSVRMPMMLKGPTGCGKTRFVEYMAYKLGKPLITVACNEDMTASDLVGRFLLDPQGTRWQDGPLTLAARLGAICYLDEVVEARQDTTVVIHPLTDNRRVLPLEKKGELVQAHPDFQLVISYNPGYQSLMKDLKQSTKQRFGALDFNYPDHEIEAEIVSHETGVNKEVADKLVSIAERARNLKGHGLDEGISTRMLVYAGSLINKGVEAKAACRVTLVRPITDDPDMRDALDAAVTTYF	not soluble
MLFTKASEYALLSLIYISQKETPQDVDSLALELDIPKSFLAKILQTLAKDGLLKSFKGAKGGFVLIKEPSQYTIKEIVNSAEKKDISVFECSGGTCPNNKEENCTLMPMLVNLQNKVDEFLDSITLEDIMKNNGKK	soluble
MTLYRLHEADLEIPDAWQDQSINIFKLPASGPAREASFVISRDASQGDAPFADYVARQLENAEKQLPGFKLHKRWDINIHGHAAVLLDYQWQREGRDLMLRQVFIERRPAVLITTLTTTPADLPHHEPAWKQAMQTLVPRPTPS	soluble
MQREKVDVLVIGAGPAGTVAASLVNKSGFKVKIVEKQKFPRFVIGESLLPRCMEHLDEAGFLDAVKAQGFQQKFGAKFVRGKEIADFNFSDQFSNGWNWTWQVPRGNFDKTLADEAARQGVDVEYEVGVTDIKFFGTDSVTTIEDINGNKREIEARFIIDASGYGRVIPRMFGLDKPSGFESRRTLFTHIKDVKRPVAAEMEGNRITAVVHKPKVWIWVIPFSNGNTSVGFVGEPSYFDEYTGTPEERMRAMIANEGHIAERFKSEEFLFEPRTIEGYAISASKLYGDGFVLTGNATEFLDPIFSSGATFAMESGSKGGKLAVQFLKGEEVNWEKDFVEHMMQGIDTFRSFVTGWYDGTLHAVFFAKNPDPDHKRMICSVLAGYVWDKNNPFVKKHNTILKTLAKVIQMGEEALEHHHHHH	soluble
